Test: protease stability score; higher = more stable; yeast display proteolysis, trypsin and chymotrypsin;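 further: log10 excess protease needed over predicted unfolded state with 0 meaning unfolded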
“DEEKVVKKHVEDLRENWRTNNEDELMKLAPPDVRVEVGDTEIHGHDQLRHWAQEMSDRIDHLEVDFRSFELENGRAEVNAKVVNNHNGKEDTNSVNITAEVQGDRMKIESMKVK” showed a protease stability score of -0.492.
Sequence “DEEKVVKVLKQALEAVQKGNQERVRKLGKPDVEVEAVNIREKGPEALRKAAQYVQKLGDKFEYKEEREEGDKVTTKVDVTRGGQTVTYQVDVVAEGGKVKEWVVNFSDTFAERVKKS” has a protease stability score of -0.268.
For “DEEKYKRLFRKVFEAAIKGDEEKVKKFGKPNVKYEYADKQYEGPEAMKHVVDLAKKVGAEVKTREQEVKGNTAKAKFQYKLGDRTVQTTVEVKYEGDKVKEARVKLTDEVKKILHQG”, the protease stability score was 0.065.
“DEELADKMRKWWQNVHQGNHDHIREMVDPNVKFQVGNKQYHGRETMSSLVVELKREITFRVDRMSASVHNGRLHVRLDIKYEVNGQPDRENLRIEANIHNGKIKSLSVQMDNEKLKKLHK” showed a protease stability score of 1.03.
With “DEELADLAHKLLEAYHTGNPDDVVRNMDPNARQTIGDRTVHGRENIKKMLRKVLQEWRIDIHLRSYHLNGNQVKLSADFNLTVNGKPDEFTATIIVIQHNGKIHEVQLRMPEQDFREITS” the protease stability score was 1.05.
Sequence “DEELAHKIAKLMETNNFQDMAKQADENATAVVGDFKVRGRSQLETLMQRFLDQIDHFEVKSWHIDNGNVHVNFVASVNGRTIEAQVIIHVSNGRIKSIELRVRNQDVQKHLRNMLS” has a protease stability score of 1.05.
With “DEELAKHFERVVRENNPDELQKQFDEDARVSVGNKRYHGREKVNDAIKRFMTNADEIRIEDIEIHGETIKVVYRFRVDGQSARVVMVVNIKDGRVKEMKISATDPRDVKVLDEVME” the protease stability score was 1.7.
“DEELAKIVLRLLQAEENGDERTLQENADPNVTINVGEKRIRGMETYAKEVTERRKRMRVEVDVKDYRNHGEHVVIVNTRLNESNGKPHRNRMQFVIHAHNGRITKISDNTDS” gave a protease stability score of -0.009.
Sequence “DEELAKKVLEKWVKVVDKGDDQAVKKLYKPNGTWINGDEETQGAEKVVKMMQKAQKKGDQFQVRKAKVEGNHVEFHYDLRIGDQTATFTVKVQVQGGRVEEVKVEVDKKAKEIITKG” has a protease stability score of 0.06.
“DEELAKNLKEWWDVLKTGDTDRLKEMADPNAKFQIGDQTIHGMDRFVKEQVHHMQQMRFEIKVDSFSAHDGRIDIDAVQRVRVNGVPIDYTVKIRAEAHNGKWKSMELEIPENVVRELER” showed a protease stability score of 1.27.
Sequence “DEELDKRIVDALHAIQKGDERRLRQLFDKNVSFKVGDEEYHGMENYAKDQKRRRDKIRVQLQSVDAKHQGDRAHVDVQRELDINGRPRTVRMIVVAHAKNGRVKNMSMNVDPKEIRELDT” has a protease stability score of -0.159.
For “DEELEDLASRIWKAIDHNNPDELKRNFDENVNAQVGDTTYHGMDDWAREIVHNLKEMRIHWSDMRVSKQGEQVRIKARFVTKHNGRPQNMRMTAVFEAHNGRVQDYKQNNRG”, the protease stability score was -0.27.
Work on “DEELEDRWRKMLEARKTGDEDRIKENMDPNAELNVGDKTYHGHDKLAKTLVDEMRTIRVEYKKFSMDARGDTVEAKYRVIENHNGKPQEDTHRWSATNRGDKIQHVDVRSDK” yielded a protease stability score of -0.435.
“DEELEEQVKEFFHAIETGDEDKLRELADPNARFHVGEKNLHGMKDVAERIRREREHIRYTVQIDSIKADGNRAHVRVVAEKEHNGNPRHFVLNVEIVRHNGRIRKVEATEDK” showed a protease stability score of 0.938.
For “DEELEHILKDILKAQKHNDEKRLEELFDPNVHFEVGDKRYNGMSRFAHELAQTQKEIKWRVQWQTWDVQGNKATMQAEAVFEVNGRPFRYTYQARVQVKNGKVKRHEIHVDPQQLRDQNS”, the protease stability score was -0.087.
With “DEELEKHADTLFEAWNHNDPKTVMKMFDPNAHVDVGDHRFRGREDLHDKMSEIQEHARLRVDVKDVKAQGEKATVRFSIEINYNGKPTQDDVVQDMEVRNGRIKRLSYRTDK” the protease stability score was -0.13.
“DEELERQFHEFLKALETNDPHRMRQLVDPNARIRVGDKRYHGMEEYAKDVVKKMEEARVSIDIKSIEVQGNHFVVEHEITRDQNGKPKTHRQRMFFTVKNGKVKEMQIEDQK” gave a protease stability score of 0.596.
For “DEELFELLRELLKAEQTGDEERLSQLVDKDVSVKIGDHVIHGRDQFAKHASERHKQMDVKVRIDSYEVRGDQVEASMTVVHDHNGRPHKDTVTLQAKYDNGKIKEMRFDFDTTVLKKIES”, the protease stability score was 0.609.
“DEELHEVVERLLQALRNGDPDQFKKNVDPNVKIVVGETQYHGREEAAHQLHQEHNNSSFQYVSVDVQVHGNKVVIDQRRRETQNGQPDSENFSEEAEAHNGKFKHIRQRSTK” gave a protease stability score of -0.235.
In the case of “DEELHEWVKEYLKALQHNDPNQFKRLADPNVRYHVGDKEVHGREEWAKLVEKRRDSMRLEMKSVSIDAQGNKARVRLRFVEEHDGRPKEFEADFDFHVSNGKLVTVKVDEDQ”, the protease stability score is reported as 0.123.
With “DEELHTIANEFNKALDRGDRKKLVDLADPNAQAVVGDQTLHGMEHVAHTIKKRQEEMRLDLKSVSVSVKGNNAILNFNALLHVNGKPVEISMRIILTVSNGKIQVIVEQFDPEQMRTARK” the protease stability score was -0.289.
For “DEELIKLAHELLRVFRRGDEDRFRQLVDPNARLQVGDTTLHGRENLAHHLRQVREHIRVDIKIDSMTAKGNKVDIKAKMNLEHNGRPDEKTVNFNVDVHNGKVHQMSFDVDS”, the protease stability score was 0.714.
For “DEELITSANEMLQQLTTGNPQEIEKQADPNARVVVGDKTYTGMDQMARDRATEVQQIRRSFRIKTVQNQGDNANIHAEYEFNINGQPRTFELTLNVEAHNGKFVHIKYHLDPDHLNKLES”, the protease stability score was -0.078.
For “DEELKERYERQEKAFENGDPDQAEDMMDPNVHVDVGNKELHGREEIVRDLHNVLQNWRFDRKVDSVNNRGDKLEVDAKQTLNVNGKPFHWHFTIVARAHNGKLKSQTVEMDPDTNRKIQS”, the protease stability score was -0.057.
In the case of “DEELKKQMDEALKARQNNDEQRLRDLFDPNVHIQVGDKVITGREEYAKRVVTTLRQLRFKYTVKSVKTKPNHIEIDVEVHNNRNGNPSNRKIVINMEADNGKISHLSVEHDG”, the protease stability score is reported as 0.585.
In the case of “DEELKKTATEFNKALNQNDEKRLKTLADPNATFVVGDEVIHGMDHVNKHQHDLKRNLRISIDVRDMKNSGPQAHVNAQVVFEIDGRPRQVEINYIITYHNGKVKKVRVDMDPEQLKEIKK”, the protease stability score is reported as 1.08.
For “DEELKKVVDRMMKAITEGNPDKVRHLMDKDVKVDIGDKRIQGNEQNARDNEKSQNHLEESLDVKRVDNKGDKATVHLTVHVNHNGKPETFKLDIHVQAHNGKVKNMNFQKRP”, the protease stability score was -0.076.
Work on “DEELKKWFHHWVRAMERGDEQELRNQADPNAKFKIGDKTYHGMDEFARQVVQELRHLRVHIRFKRVRNEPGRLSVDATVVREHNGKPDSYRQKASATYHNGKLTNMTINKDK” yielded a protease stability score of 0.735.
For “DEELLELFERWVDAVHNNDKEQLKRLMDPNVKFQIGDKRWEGREKLVKDIADEQRQIRVRYRVDTMDATNGRADVHAKVEIEVNGKPISFRVRVFMEVHNGKVKSIVWNIPEDDMKKLQK”, the protease stability score was 1.63.
“DEELLELVRRWITAVRTNDPKQLEKNFDPNAKFEYGDKSVRGKEQVVREQEKQVQEIRFSYRISDFRVDNGRVEMEVKVHEKHNGRPDTKTVKWKAEMSNGRLVWMRMQKRQ” gave a protease stability score of 0.412.
Work on “DEELLERIKRIMHSGNFTELANQMDKDAKIIIGDKVLHGREQVEEWYDHLEREVDHVEVHTMTIHNGHLTVHMRMTINGKTFKVIMVIEVHNGRVKRVEVRVTDPNVQKWLKSILQ” yielded a protease stability score of 1.26.
“DEELLHRIRDFLRAVRHGDSDHLRQLMDEDVKMTVGDHEIHGRERILDKIKQTRDEQRIHIQVRSMHADGDKATVHADIENEHNGQPQTAKLRMTVQVENGRIKQIDVEIKQ” gave a protease stability score of 0.904.
In the case of “DEELLKELLKYLKVREHGDKDKFERMADPNAKIHVGDREVHGREHLAKEIKTEKEEMEVSVDRYTQRVNGDKARLKVDFKVEHNGKPERRAHVLVMHTHNGKIKSLKAQDTD”, the protease stability score is reported as -0.111.
With “DEELLKEWETLVEDNNEQDLSKMADEDARVNVGDKHYHGRENVEKFITTLAQRIDRIDIKTVDNDGEKVRIDMIAKFNGHQLRVVLEMQAHNGRVKVINARATNEDQEKLWKDLVD” the protease stability score was 0.798.
With “DEELLKIAKQFFEAEQNGDEDELKEQMDPNANLEYGDRTVHGRENIARWVSRVLREARIDFKEISVQDHNGRAKIHVRFVIDVNGRPNRMTRIVVVEQHNGRIKYLNIRMSEEQLKKLKE” the protease stability score was 0.132.
“DEELLRNLEEVFKKNNFSTLANLADKDATLIVGDKVYKGKQQVRDWANELDERIDHVSIHSIDNQGDTMVARMVLNVDGVNAEFTLSVEISNGRVQVISLKVTDDEVKDQISKMES” gave a protease stability score of 0.953.
With “DEELMKTVHDLYSNLRQNDEHKFDELVDPNASLRVGDKRLHGREQIHDELKRQNEEIHVSRQMKEMTVHNGRADVNIRASETHNGQPDEFTIDATFELHNGRFISIDIKKRP” the protease stability score was -0.529.
In the case of “DEELNHQVHSFIKNVRQGNPKEAVKQADPNVRVQVGNKVINGRENMEKWYREMKREMRIVIKVDRIRAHNGRAEATYKVEYDVNGKPYTNTNSMHVEAHNGRIVSIYEDFDETHLREVQS”, the protease stability score is reported as -0.367.
Work on “DEELQDRFRRMIRIREEGDEQKLNEQVDPNVRLRVGDKEIKGREQLEEDQKRKNKQMRIRIKHLEVEAQGNKVRVSIHMTMRVNGRPFHFEFTANYTYHNGKLKHADVNIDPDFVREVHQ” yielded a protease stability score of 0.027.
“DEELQDTAHKLLKLRQRGNWKHVQEMFDENARRIVGDKTLTGMTEIAEEVKREHEQWHLKITDLKASVEGDKVDIKFHAVFDVNGHPVTVNAMVVIVNQGDKAKRIQIRIPESVLNRINQ” gave a protease stability score of 0.292.
With “DEELQEEIEKFWKQLEFGNEDSLEKLMDPNAEMRVGDHTLHGRDSIAKELRRRQEEQRVDIHSYKLSAHNGRVTVNIDATFNHNGNPDRKIQRASLEISNGKLKRMDVRDEQ” the protease stability score was -0.046.
With “DEELQELATRQMEALHTNDEKQWVDLFDPNARQRYGDKTIKGREQFSQHLRDMQRHMRVQIHTFSAQVSNGDIHLKIDQLNNVNGTPYRDTVHLEFRVHNGRVKEVILHVSEDQQKKIER” the protease stability score was 0.918.
Work on “DEELQENAEHFMDDLKTGNEDSIKQNADPNAHFQIGDKTFHGREDFVKHIKKQRQHARIQLDVKNIDVQGDHVTINANVIVNVDGRPQSADVTILIRYHNGRIHTVLYSFSEKDKKKMES” yielded a protease stability score of 0.872.
“DEELQENAEHLVKAMNKGDREEISRQVDKNASVEIGDQELHGREDIRRFFHEVHEEMRFHIEIKTVDVKGNEVTVHAEAENDDNGRPQTNEVDIDIKVKNGKITSMRIQYNS” gave a protease stability score of -0.539.
“DEELQKLVDDLLQALRSNNPEQFENNFDPNAKIRYGEKDVHGRTRFVKELQRERDDARFRIETYRVDNQGDKASLKMVFQRDHNGQPQRHTARAEIVVKNGKVQTAVFNFDS” gave a protease stability score of -0.018.
In the case of “DEELQKMVEQFFRNEQNGNRDQLKRLADPNVNFQYGDKTIHGMDTFLQRQRERHEDSRQDFKSIDMKVQGDKVRVTAVLEQETDGQPERFRREMTVEAHNGKIKSVNVQHSQ”, the protease stability score is reported as -0.082.
In the case of “DEELQSDVEEFLRNQTTGDEDRLKELADENAKVHVGDKTLHGMDQIKRYERQEREEMRIDYKHWDIKVSGNQVTVHFDFVNRFNGKPQHVSVILHVQFDNGKIKAADYRTDPREREKIRS”, the protease stability score is reported as -0.463.
Sequence “DEELQSQAERFLKNLQRGDETKLLQQMDPNAKMQYGDKTVHGRERLRTWVKHVKDEMRVQVDKFRQTVSGNHIRFDWDATFNINGTPDKIRIDVDIQVHNGRIKLITFRVSEEQTKRLHS” has a protease stability score of 0.371.
For “DEELRKLAEQLVTIFQTGNEHHVQELMDPNAKLQIGDTEFKGREEYVKEVKKRRDEMRFSIKKVKVDAHGDKIDIKIHMTMKHDGKPRDYVVTVHLRVQGDKIKSAHYQDTK”, the protease stability score was 0.155.
